Data on one substance can be found in EP1343909B1.

This test concerns the target plasminogen. In words: cell-based or functional assay.

The substance “Bacteriophages which harbored K2S on gp3 (K2S-φ) (from UniProt P00750 209-562)” registered a fibrinogen-dependent enzymatic activity (amidolytic assay with plasminogen and S-2251) of less than 0.25 IU/ml.
